In US20100159560:

Tests used:
[1] = target: T1, protransglutaminase of Streptoverticillium mobaraense IFO13819 (pro-MTG) (UniProt P81453)
T1 sequence: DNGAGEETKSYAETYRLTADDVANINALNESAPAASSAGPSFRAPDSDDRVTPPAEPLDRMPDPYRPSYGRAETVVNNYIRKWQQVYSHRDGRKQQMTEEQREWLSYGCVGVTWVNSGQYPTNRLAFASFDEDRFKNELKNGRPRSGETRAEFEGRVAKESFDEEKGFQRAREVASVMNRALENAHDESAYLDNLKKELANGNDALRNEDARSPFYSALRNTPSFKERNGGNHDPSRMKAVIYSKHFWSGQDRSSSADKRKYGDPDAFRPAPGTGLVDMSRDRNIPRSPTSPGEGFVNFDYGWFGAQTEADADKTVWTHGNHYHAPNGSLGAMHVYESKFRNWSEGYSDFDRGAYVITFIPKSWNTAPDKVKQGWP

[2] = target: T2, Streptomyces subtilisin inhibitor (SSI) derived from actinomycetes (UniProt P01006)
T2 sequence: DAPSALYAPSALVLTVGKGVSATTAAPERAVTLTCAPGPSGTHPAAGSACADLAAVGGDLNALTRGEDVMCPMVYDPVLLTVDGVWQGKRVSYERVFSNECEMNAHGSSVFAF

Row | Substance | conversion of pro-MTG to mature MTG (SDS-PAGE time course; TG activity by the hydroxamate method), substrate:enzyme = 200:1 [1] | relative activity (Gly-Pro-Ser-Phe-Arg-Ala-Pro-Asp-Ser cleavage activity, absence of compounds = 100%) [2] | amount of protease needed to convert pro-MTG to active MTG (TG activity by the hydroxamate method, MTG protein by reverse phase chromatography) [1] | cleavage points (HPLC separation and sequencing of peptide fragments) [1] | cleavage points (HPLC separation and sequencing of peptide fragments) (insulin B) | amount of protease needed to convert pro-MTG to active MTG (TG activity by the hydroxamate method) [1]
1 | neutral metalloprotease SGMP II from Streptomyces griseus | pro-MTGs were converted to the mature forms, and the produced MTGs were not reduced even after a long-term reaction | – | – | – | – | –
2 | neutral metalloprotease SVP70 from Streptoverticillium mobaraense IFO13819 | pro-MTGs were converted to the mature forms, and the produced MTGs were not reduced even after a long-term reaction | underwent strong inhibitory action | SVP could convert pro-MTG to active MTG with an amount as small as 1/500 of the substrate | cleaved before (at N-terminal side of) especially Phe, often Leu, sometimes Tyr, Trp, Ile, Val | cleaved before (at N-terminal side of) especially Phe, often Leu, sometimes Tyr, Trp, Ile, Val | –
3 | serine protease SAM-P45 (Streptomyces albogriseolus) | – | – | when SAM-P45 was added at an amount of 1/10 of the substrate, the conversion into the active MTG was observed, but a decrease in the amount and the activity of MTG-protein was observed | – | – | generated only insufficient transglutaminase activity even at an amount of 1/50 of the substrate, and that the complete conversion to the active form was not observed
